Results on 1 substance are retold here after patent US20100233191A1.

The target of the test is MPP1 (proaerolysin with the furin site replaced by the PSA substrate HSSKLQ) (Aeromonas hydrophila) (UniProt P09167). The test can be described thus: cell-based or functional assay.

“Prostate-specific antigen (PSA), also referred as hK3 (from UniProt P07288 25-261) (enzyme)” came in with an LD50 (cell killing, Trypan Blue exclusion, PSA-producing LNCaP cells, 24 h) of 100 pM and a fold difference in toxicity, PSA-producing versus non-PSA producing cells of 500 fold.
